This is an account of results in PMC10009750, “Development of Selective ADAMTS-5 Peptide Substrates to Monitor Proteinase Activity” (Journal of Medicinal Chemistry, 2023).

One assay deals with T1, TS5-5 (ADAMTS-5) (Homo sapiens, UniProt Q9UNA0).
T1 construct: ADAMTS-5 (i.e. TS5-5, residues 264–555); FLAG; made in house; host or cells: HEK293 cells (previously transfected stocks)
T1 sequence (Q9UNA0 264-555): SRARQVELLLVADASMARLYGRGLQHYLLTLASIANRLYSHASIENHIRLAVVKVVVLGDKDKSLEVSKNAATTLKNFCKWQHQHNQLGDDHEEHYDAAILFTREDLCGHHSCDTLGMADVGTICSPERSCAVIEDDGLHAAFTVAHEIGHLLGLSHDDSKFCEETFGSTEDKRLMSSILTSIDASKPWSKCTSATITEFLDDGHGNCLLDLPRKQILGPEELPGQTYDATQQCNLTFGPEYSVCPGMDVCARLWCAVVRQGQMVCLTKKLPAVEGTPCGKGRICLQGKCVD
The assay can be described thus: Determination of kinetic parameters (kcat and Km) for substrate cleavage by TS5-5, inner-filter corrected. It counts as biochemical. On the procedure: A solution of Abz-TESE↓SRGAIY-Dpa-KK-NH2/3/26 (5 mM) or 19/23 (1 mM) in DMSO underwent a 2-fold serial dilution with freshly prepared TNC buffer containing 0.005% (v/v) Brij-35. This gave initial concentrations in the following range: 222.22 to 0.87 μM (Abz-TESE↓SRGAIY-Dpa-KK-NH2/3/23/26) and 177.78 to 1.39 μM (19). Eight substrate concentrations (180 μL) within these ranges (including outer numbers) were added to a 96-well black microplate in triplicate and incubated at 37 °C (20 min). TNC buffer with 0.005% (v/v) Brij-35 was added to substrate-only control wells in a single replicate (180 μL). TS5-5 proteinase was thawed from −80 or −20 °C, made up in TNC buffer with 0.005% (v/v) Brij-35 (300 nM) and added to substrate wells (20 μL). TNC buffer was added to substrate-only control wells (20 μL). Fluorescence intensity was measured at 37 °C for 1 h with readings every 20 s. The rate of substrate cleavage was determined at each substrate concentration and expressed as the mean ± SEM in μM s^–1. The subsequent data was fitted to the Michaelis–Menten eq 2: [drawing 2] 2 where v is the rate of the reaction, Vmax is the maximal rate of the reaction, Km is the Michaelis constant, and [S] is the substrate concentration. This equation enabled the Km value to be determined. The catalytic rate constant kcat was determined from eq 3: [drawing 3] 3 where [E] is the concentration of proteinase, and kcat and Vmax are as defined previously. These initial Km and kcat parameters were determined from n = 3–4 independent experiments with final values for these parameters reported after a correction for the inner-filter effect.
This was performed based on the protocol described in Liu et al.([40]) to correct for quenching of the released Abz fluorophore by uncleaved substrate. Two sets of initial substrate concentrations were prepared as described in the previous section. Both sets of substrate concentrations (180 μL) were added to a 96-well black microplate in triplicate. Two buffer-alone controls with TNC buffer containing 0.005% (v/v) Brij-35 (180 μL) were also added in triplicate. All solutions were incubated at 37 °C (20 min). Abz fluorophore (1 M) in DMSO was serially diluted to 1 mM in DMSO, before further dilution to 100 μM using TNC buffer containing 0.005% (v/v) Brij-35. TNC buffer containing 0.005% (v/v) Brij-35 (20 μL) was added to the first set of substrate concentrations as well as to the first buffer-alone control. Abz fluorophore (20 μL, 100 μM) was added to the second set of substrate concentrations as well as the second buffer-alone control. The end-point fluorescence intensity was measured at 37 °C using λex = 300 nm and λem = 430 nm. At each substrate concentration, […] to give the actual fluorescence of the Abz fluorophore (RFUAbz). These values were divided by RFUAbz at a substrate concentration of 0 μM to give the correction factor for each concentration. The rates for each substrate concentration described in the previous section were divided by their respective correction factors (Tables S6–S10) to deliver the inner-filter corrected kcat and Km values.

Assay [1] relates to MMP-2ΔC (catalytic domain of MMP-2). The assay can be described thus: Selectivity studies: cleavage of FRET peptide substrates by MMP-2ΔC. In kind it is biochemical. As to conditions: substrate 20 μM; for preference (selectivity) for TS5-5 over MMP-2ΔC: ratio of cleavage rates. As to the method:
All proteinase assays were performed at 37 °C in a SpectraMax M5 spectrophotometer (Molecular Devices, San Jose, USA) using a 96-well black microplate (Greiner bio-one, Stonehouse, UK) unless otherwise stated. […] N-TIMP-3 was purified as described previously[30] and CT-1746 was a gift from Dr. Yoshifumi Itoh (Kennedy Institute of Rheumatology, University of Oxford). All analyses were carried out using Prism 9 software (GraphPad, La Jolla, CA, USA).
Selectivity studies are described for Abz-TESE↓SRGAIY-Dpa-KK-NH2, the library parent peptide 3, and hit peptides 18–26. A solution of Abz-TESE↓SRGAIY-Dpa-KK-NH2 (22.22 μM) in freshly prepared TNC buffer with 0.005% (v/v) Brij-35 (90 μL) was added to a 96-well clear bottom microplate (Greiner bio-one, Stonehouse, UK) in triplicate. A substrate-only background control was also added in triplicate (90 μL). The resultant solutions were incubated at 37 °C (30 min). An ADAMTS or MMP proteinase was added to substrate wells (10 μL) to give a final proteinase concentration of either 50–90 nM (TS4-4), 25–200 nM (TS5-5), 5–10 nM (MMP-2ΔC), 30 nM (MMP-9ΔC), 92 nM (MMP-1), or 3 μM (MMP-3). TNC buffer with 0.005% (v/v) Brij-35 was added to substrate-only control wells (10 μL). The relative fluorescence intensity was measured at 37 °C for 1 h with readings every 20 s. Activity was read from underneath the microplate, which was covered with a low evaporation lid. […] For each ADAMTS and MMP proteinase, the assay was performed 2–4 times. […] Final rates were expressed as a percentage of substrate cleavage by TS5-5 (mean ± SEM) or in μM s^–1 μM^–1 of proteinase.

Setting [2] is: TS5-5, TNC buffer with 0.005% (v/v) Brij-35, 37 °C, corrected for inner filter effect, mean ± SEM from 3–4 independent experiments in triplicate.
The mark [3] stands for this setting: TS5-5, TNC buffer with 0.005% (v/v) Brij-35, 37 °C, corrected for inner filter effect, mean ± SEM from 3–4 independent experiments in triplicate, listed as current substrate.
The mark [4] stands for this setting: supplementary CSV copy of Table 3, TS5-5, 37 °C.

Values joined by “and” are separate entries in the source; they are usually repeats but may differ in a detail not shown here. Identical values can stand only once. Non-standard residues stand in square brackets, D forms with d. No end group written: not given here. Tyr(3-NO2) = N[C@@H](Cc1ccc(O)c([N+](=O)[O-])c1)C(=O)O; 2Abz = Nc1ccccc1C(=O)O

Usually Km stands for the concentration of substrate that gives half-maximal velocity. Broadly, the kcat is the maximal rate divided by the concentration of active sites. In general, kcat/Km refers to the second-order rate constant that governs catalysis at low substrate concentration. With “Abz-TESE↓SRGAIY-Dpa-KK-NH2 [current, ortho-aminobenzoyl(Abz)-TESE↓SRGAIY-N-3-[2,4-dinitrophenyl]-L-2,3-diaminopropionyl(Dpa)-KK-NH2, reference compound]”, on TS5-5 (ADAMTS-5) (setting [2]), the Km was found to be 125 ± 5 µM, the kcat is 3.61 ± 0.31 s⁻¹ and the specificity constant (kcat/Km) came out at 29100 ± 3090 M⁻¹ s⁻¹. In addition, on TS5-5 (ADAMTS-5) (setting [3]), the kcat came out at 3.61 s⁻¹ and the kcat/Km is 29100 M⁻¹ s⁻¹. Moreover, at TS5-5 (ADAMTS-5) (setting [4]), the kcat is 3.61 ± 0.31 s⁻¹. In assay [1], the “preference (selectivity) for TS5-5 over MMP-2ΔC” value is given as about 0.7 fold. Moreover, in assay [1] (TNC buffer with 0.005% (v/v) Brij-35, 37 °C, mean of 2–8 independent experiments in triplicate), the “cleavage by MMP-2ΔC as a fraction (percentage) of TS5-5 cleavage of the current substrate” value is 138%.
Regarding “KY(NO2)TESESRGK(Abz)IYYKKG (K[Tyr(3-NO2)]TESESRGK(Abz)IYYKKG) [Compound 3]”, in the assay with TS5-5 (ADAMTS-5) (TS5-5), the “decrease in Km compared to the current substrate” value is reported as about 4 fold, the “higher catalytic efficiency (kcat/Km) compared to the current substrate” value is about 2 fold and the “lower catalytic rate constant (kcat) compared to the current substrate” value is about 2 fold. For the same substance, in the assay with TS5-5 (ADAMTS-5) (setting [2]), the Km amounted to 29.5 ± 1.7 µM; the catalytic constant (kcat) was 1.87 s⁻¹ and 1.87 ± 0.15 s⁻¹; the catalytic efficiency (kcat/Km) was 63200 M⁻¹ s⁻¹ and 63200 ± 1840 M⁻¹ s⁻¹. In the assay with TS5-5 (ADAMTS-5) (setting [4]), the turnover number (kcat) worked out at 1.87 ± 0.15 s⁻¹. Also, the “preference (selectivity) for TS5-5 over MMP-2ΔC” value in assay [1] was about 10 fold.
“KY(NO2)SENESRGK(Abz)IYYKKG (K[Tyr(3-NO2)]SENESRGK(2Abz)IYYKKG) [Compound 26]”: in the assay with TS5-5 (ADAMTS-5) (TS5-5), the “decrease in Km compared to the current substrate” value is given as about 2 fold and the “higher catalytic efficiency (kcat/Km) compared to the current substrate” value was about 1.5 fold. Moreover, in the assay with TS5-5 (ADAMTS-5) (setting [2]), the Km worked out at 76.9 ± 6.4 µM; the kcat was 3.32 s⁻¹ and 3.32 ± 0.31 s⁻¹; the kcat/Km was 44400 M⁻¹ s⁻¹ and 44400 ± 6690 M⁻¹ s⁻¹. Also, the kcat in the assay with TS5-5 (ADAMTS-5) (setting [4]) came out at 3.32 ± 0.31 s⁻¹. In assay [1], the “preference (selectivity) for TS5-5 over MMP-2ΔC” value is listed as about 8 fold.
